These results are taken from US20240285753A1 (DUKE UNIVERSITY, published 2024).

The target in assay [1] is T1, SARS-CoV-2 D614G spike on infected cells (SARS-CoV-2, UniProt P0DTC2 14-1273).
T1 construct: whole, on cells
The experiment in a line: flow cytometry, infected cells, % infected cells bound.

Assay [2] deals with T2, S2hlx-Ex6.
T2 construct: backbone grafting design
T2 chain: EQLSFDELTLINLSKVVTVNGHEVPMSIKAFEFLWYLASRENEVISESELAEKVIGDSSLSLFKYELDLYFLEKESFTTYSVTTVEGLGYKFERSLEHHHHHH
The experiment in a line: ELISA, coated antigen, mAb titrated.

The target of assay [3] is T1, SARS-CoV-2 D614G spike on infected cells. The experiment in a line: flow cytometry on infected Vero E6 cells.

B1: DH1498 (antibody, V domains shown)
VH: QVQLQESGPGLVKPSETLSLTCAVSGGSVSSDTYYWSWIRQPPGKGLEWIGYIYNSGSTNYNPSLKSRVTISVDTSKSQFSLNLGSVTAADTAVYYCAREGAGTYPPKNDAFDIWGQGTLVTVSS
VL: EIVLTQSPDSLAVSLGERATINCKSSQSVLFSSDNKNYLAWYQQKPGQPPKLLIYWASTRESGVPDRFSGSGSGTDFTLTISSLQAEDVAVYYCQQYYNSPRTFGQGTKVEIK
For the molecule B1, the binding result in assay [1] is “no binding (tested: 50 µg/mL)”.

B2: S2P6 mAb (antibody, V domains shown)
VH: EVQLVQSGAEVKKPGASVKVSCKASGYTFTSQYMHWVRQAPGQGLEWIGIINPSGVHTSYAQKFQGRVTLTRDTSTSTLYMELSSLRSEDTAVYYCARGSPKGAFDYWGQGTLVTVSS
VL: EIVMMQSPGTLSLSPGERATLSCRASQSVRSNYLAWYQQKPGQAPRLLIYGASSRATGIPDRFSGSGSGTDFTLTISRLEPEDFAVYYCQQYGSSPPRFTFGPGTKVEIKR
Turning to B2, the half-maximal effective concentration (EC50 (read off the curve)) in assay [2] is around 0.1 µg/mL.

B3: DH1501.1 (antibody, V domains shown)
VH: EVQLVESGAEVKKPGASVRVSCKASGFTFTDHYMHWVRQAPGQGLEWMGLINPTGVNTFYAQNFRGRVTMTRDTSTKTDYLEVRSLTSQDTAMYYCARMSRYGAFDIWGQGTMVTVSL
VL: EIVLTQSPGTLSLSPGERATLSCRASQSVGSGYLAWYQQKPGQAPRLLIYGASVRATGIPDRFSGSGSGTDFSLTINRVEPEDFAMYYCQNYGSSPPRYTFGQGTKLEIK
In the case of B3, in assay [3], the binding result is listed as “binds”.

B4: DH1501.2 (antibody, V domains shown)
VH: EVQLVESGAEVKKPGASVRLSCKASGDTFNNKYVHWVRQAPGQGLEWMGLINPSGSGTAFAQKFQGRVSMTRDTSTRTVYLGLTSLTYEDTAVYYCARMSRAGTFDIWDQGTMVTVSS
VL: EIVLTQSPGTLSLSPGDRATLSCRASENVGTSYLAWYQQKPGQAPRLLISGTSSRATGVPDRFSGSGSGRDFTLTISRLEPEDFAVYYCQQYGSSPPRYTFGQGTKLDMK
Turning to B4, the binding result in assay [3] is listed as “binds”.
